# Assay results from the supplement of paper PMC7877785.
# ± gives the uncertainty stated by the source.
# Test: self-splicing fitness, log relative to wild type (ln ratio); higher = more splicing; Tetrahymena group I intron in knt gene, E. coli kanamycin selection, DiMSum; sequences stand for … in CUCUCU…GGAGGGAAAAGUUAUCAGGCAUGCACCUGGUAGCUAGUCUUUAAACCAAUAGAUUGCAUCGGUUUAAAAGGCAAGACCGUCAAAUUGCGGGAAAGGGGUCAACAGCCGUUCAGUACCAAGUCUCAGGGGAAACUUUGAGAUGGCCUUGCAAAGGGUAUGGUAAUAAGCUGACGGACAUGGUCCUAACCACGCAGCCAAGUCCUAAGUCAACAGAUCUUCUGUUGAUAUGGAUGCAGUUCACAGACUAAAUGUCGGUCGGGGAAGAUGUAUUCUUCUCAUAAGAUAUAGUCGGACCUCUCCUUAAUGGGAGCUAGCGGAUGAAGUGAUGCAACACUGGAGCCGCUGGGAACUAAUUUGUAUGCGAAAGUAUAUUGAUUAGUUUUGGAGUACUCGUGGUCG
# Method in brief: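 Library with all eight P1ex-region intron nucleotides randomised, intron inside the knt kanamycin-resistance gene on pET-22b(+), in E. coli BL21(DE3). Cells grew overnight at 37°C or 30°C on LB agar with or without 25 μg/mL kanamycin (plus 100 μg/mL carbenicillin, 50 μM IPTG, 0.2% rhamnose), in six replicate transformations. Pooled colonies were amplicon-sequenced on Illumina HiSeq 2500. DiMSum fitness is the error-weighted combination of wild-type-normalised replicate fold changes, kanamycin versus none.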
Sequence,self-splicing fitness (ln) (30 °C),self-splicing fitness (ln) (37 °C)
ACAAAGCAAUAUUACGGGGU,-3.15 ± 0.16,-2.59 ± 0.18
CCGAAGCAAUAUUACGCCUG,-1.04 ± 0.094,-1.17 ± 0.11
CCUUAGCAAUAUUACGAAGC,-3.24 ± 0.3,-1.56 ± 0.32
CAAUAGCAAUAUUACGUUUU,-5.04 ± 0.25,-2.5 ± 0.13
AACCAGCAAUAUUACGAAGU,-2.26 ± 0.066,-0.559 ± 0.069
CCCUAGCAAUAUUACGGCAA,-3.66 ± 0.22,-3.15 ± 0.18
UCACAGCAAUAUUACGGGUU,-3.77 ± 0.16,-2.33 ± 0.12
UGCGAGCAAUAUUACGCUCG,-2.91 ± 0.22,-1.92 ± 0.23
CAUAAGCAAUAUUACGCGGU,-3.72 ± 0.24,-2.34 ± 0.17
CUGAAGCAAUAUUACGUAUA,-2.8 ± 0.18,-2.19 ± 0.27
UCAGAGCAAUAUUACGAUCG,,-2.39 ± 0.33
CAGUAGCAAUAUUACGGGAU,-4.35 ± 0.31,-3.18 ± 0.16
ACGUAGCAAUAUUACGACUC,-0.301 ± 0.26,-0.584 ± 0.27
AACCAGCAAUAUUACGCAUA,-0.88 ± 0.078,0.309 ± 0.089
UCUCAGCAAUAUUACGGGAU,-4.25 ± 0.27,-2.87 ± 0.19
ACGCAGCAAUAUUACGGUUG,-3.89 ± 0.2,-1.85 ± 0.14
ACCGAGCAAUAUUACGACUA,-2.66 ± 0.19,-1.7 ± 0.17
CCCAAGCAAUAUUACGAGUC,-3.23 ± 0.16,-3.28 ± 0.24
AAGAAGCAAUAUUACGUAAG,-1.37 ± 0.069,-0.942 ± 0.083
CACAAGCAAUAUUACGUCCA,-3.23 ± 0.2,-1.59 ± 0.12
GCAGAGCAAUAUUACGGUAA,-3.52 ± 0.27,-2.36 ± 0.21
CACAAGCAAUAUUACGAGGA,-3.18 ± 0.25,-2.59 ± 0.19
CAUUAGCAAUAUUACGAGCC,-2.89 ± 0.23,-2.08 ± 0.27
UUCCAGCAAUAUUACGCGGG,-3.83 ± 0.29,-2.69 ± 0.29

Sequence,self-splicing fitness (ln) (30 °C),self-splicing fitness (ln) (37 °C)
GCCUAGCAAUAUUACGCACC,-0.962 ± 0.26,-0.41 ± 0.21
AUUUAGCAAUAUUACGCGAG,-2.19 ± 0.22,-0.658 ± 0.2
GUCCAGCAAUAUUACGGAAA,-0.248 ± 0.095,0.62 ± 0.12
CGUUAGCAAUAUUACGCGGC,-2.07 ± 0.23,-2.19 ± 0.26
CCUUAGCAAUAUUACGGCAG,-1.83 ± 0.12,-2.73 ± 0.2
AGAGAGCAAUAUUACGCACG,-2.18 ± 0.38,
CUCCAGCAAUAUUACGACAU,-4.008 ± 0.026,-2.95 ± 0.039
GUCCAGCAAUAUUACGGAUU,-2.84 ± 0.09,-0.789 ± 0.091
GUAGAGCAAUAUUACGAGAG,,-2.05 ± 0.36
AGGUAGCAAUAUUACGCGCG,-0.525 ± 0.016,-0.215 ± 0.035
CGUGAGCAAUAUUACGUUGG,-2.62 ± 0.12,-1.45 ± 0.11
AUAUAGCAAUAUUACGAAGG,-2.83 ± 0.3,-2.3 ± 0.4
UGGCAGCAAUAUUACGUGUC,-3.85 ± 0.19,-2.17 ± 0.19
UAUAAGCAAUAUUACGGGCA,-0.658 ± 0.11,0.213 ± 0.12
AUAAAGCAAUAUUACGUCAC,-3.46 ± 0.14,-3.09 ± 0.2
CCCCAGCAAUAUUACGAUAG,-3.16 ± 0.1,-3.25 ± 0.17
UAUUAGCAAUAUUACGGUUC,-3.84 ± 0.39,-3 ± 0.29
UAUAAGCAAUAUUACGUUCG,-0.846 ± 0.12,0.0904 ± 0.17
CAAGAGCAAUAUUACGAGAU,-3.29 ± 0.29,-2.8 ± 0.28
ACAAAGCAAUAUUACGCACG,-1.96 ± 0.12,-0.724 ± 0.1
AGAUAGCAAUAUUACGGGAA,-3 ± 0.27,-2.7 ± 0.25
ACUGAGCAAUAUUACGAAGG,-2.53 ± 0.18,-2.02 ± 0.24
AAGGAGCAAUAUUACGUCAG,-3.29 ± 0.41,-2.28 ± 0.45
AAACAGCAAUAUUACGCAAA,-2.87 ± 0.12,-1.75 ± 0.1
